Assay results as given in paper PMC11580166, “VPS26 Moonlights as a β-Arrestin-like Adapter for a 7-Transmembrane RGS Protein in Arabidopsis thaliana” (Biochemistry, 2024).

B1: Vacuolar Protein Sorting-Associated 26B (AtVPS26B) [Arabidopsis thaliana] / Vacuolar Protein Sorting-Associated 26A (AtVPS26A) [Arabidopsis thaliana] (parent complex)
chain 1: MNYLLGAFKPACNISITFSDGKNRKQVPMKKENGQTALVPLFHSQDTISGKVCIEPYQGKKVEHNGVKVELLGQIEMYFDRGNFYDFTSLVRELDVPGEIYERKTYPFEFPTVEMPYETYNGVNVRLRYVLKVTVTRGYAGSILEYQELVVRNYAPLPDINNSIKMEVGIEDCLHIEFEYNKSKYHLKDVILGKIYFLLVRIKMKNMDLEIRRRESTGAGANTHVETETLAKFELMDGTPVRGESIPVRLFLAPYDLTPTHRNINNKFSVKYYLNLVLVDEEDRRYFKQQEITLYRLKEDASS
chain 2: MNYLLGAFKPACNISITFTDGKNRKQVPTKKDNGQIVMNPLFQSQETIAGKINIEPYQGKKVEHNGVKVELLGQIEMYFDRGNFYDFTSLVREIDVPGEIYERKTYPFEFSSVEMPYETYNGVNVRLRYVLKVTVTRGYAGSIVEYQDFVVRNYVPLPPINNSIKMEVGIEDCLHIEFEYNKSKYHLKDVILGKIYFLLVRIKIKNMDLEIRRRESTGAGANTHVETETLAKFELMDGAPVRGESIPVRVFLTPYDLTPTHKNINNKFSVKYYLNLVLVDEEDRRYFKQQEITLYRLKEETS

Variants of: B1
Assay: Microscale Thermophoresis (MST); parent: 18 nM
chain 1 Y85A, chain 1 E93A gave a Kd of 525 nM.
